# Experimental data published in patent US20190185581A1 (University of California, published 2019).
# Changes are numbered by the printed parent chain.
# B1: Fab R2C9 (Fab, V domains shown)
# VH: EVQLVESGGGLVQPGGSLRLSCAASGFNIYSYSMHWVRQAPGKGLEWVAYIYPYSGYTYYADSVKGRFTISADTSKNTAYLQMNSLRAEDTAVYYCARVLNIFMDVGAARFPGLVRYGMDYWGQGTLVTVSS
# VL: DIQMTQSPSSLSASVGDRVTITCRAGQDVSSAVAWYQQKPGKAPKLLIYSASTLHSGVPSRFSGSRSGTDFTLTISSLQPEDFATYYCQQSGPYSLFTFGQGTKVEIKR
# B2: Fab R2C4 (Fab, V domains shown)
# VH: EVQLVESGGGLVQPGGSLRLSCAASGFNLSYYYMHWVRQAPGKGLEWVAYISSYSGYTYYADSVKGRFTISADTSKNTAYLQMNSLRAEDTAVYYCARGWRVYADRGHVRGYFRVWYGMDYWGQGTLVTVSS
# VL: DIQMTQSPSSLSASVGDRVTITCRASQSVSSAVAWYQQKPGKAPKLLIYSASSLYSGVPSRFSGSRSGTDFTLTISSLQPEDFATYYCQQGAGLITFGQGTKVEIKR
# B3: Fab R3C15 (Fab, V domains shown)
# VH: EVQLVESGGGLVQPGGSLRLSCAASGFNISYSYMHWVRQAPGKGLEWVASISPYSGYTYYADSVKGRFTISADTSKNTAYLQMNSLRAEDTAVYYCARGVRGNKLRLLSSRSGRMESHYVMDYWGQGTLVTVSS
# VL: B2 VL with G91A, A92G, G93S, I95F
# B4: Fab R2C16 (Fab, V domains shown)
# VH: EVQLVESGGGLVQPGGSLRLSCAASGFNIYSYSMHWVRQAPGKGLEWVASISSYYGYTYYADSVKGRFTISADTSKNTAYLQMNSLRAEDTAVYYCARFKNADFAAGGQWSKMLIARMYAMDYWGQGTLVTVSS
# VL: B2 VL with G91Y, A92Y, G93S
# B5: Fab R2C8 (Fab, V domains shown)
# VH: EVQLVESGGGLVQPGGSLRLSCAASGFNISSSSIHWVRQAPGKGLEWVASIYPYYGSTSYADSVKGRFTISADTSKNTAYLQMNSLRAEDTAVYYCARPGRHLQTTFKGYQFKYSRYIYAMDYWGQGTLVTVSS
# VL: DIQMTQSPSSLSASVGDRVTITCRASQSVSSAVAWYQQKPGKAPKLLIYSASSLYSGVPSRFSGSRSGTDFTLTISSLQPEDFATYYCQQWGHHGYLITFGQGTKVEIKR
# B6: Fab 32E10 (Fab, V domains shown)
# VH: EVQLVESGGGLVQPGGSLRLSCAASGFNIYSYSMHWVRQAPGKGLEWVAYIYPYSGYTYYADSVKGRFTISADTSKNTAYLQMNSLRAEDTAVYYCARLDRDRYIHVGRAGNTYSNYYYVMDYWGQGTLVTVSS
# VL: B5 VL with W91P, G92W, H93G, H94A, G95A, Y96S
# notes: also called R2C19; not shown: His tag at the C-terminus of the heavy chain
# B7: Fab R2C11 (Fab, V domains shown)
# VH: EVQLVESGGGLVQPGGSLRLSCAASGFNLYYSSIHWVRQAPGKGLEWVAYIYPSYSYTYYADSVKGRFTISADTSKNTAYLQMNSLRAEDTAVYYCARRYGSDVFCVGCFFGVRLSYVMDYWGQGTLVTVSS
# VL: B5 VL with W91Y, G92V, H93S, H94S, Y96S
# B8: Fab R3C13 (Fab, V domains shown)
# VH: EVQLVESGGGLVQPGGSLRLSCAASGFNIYYSYMHWVRQAPGKGLEWVASISSYSGSTSYADSVKGRFTISADTSKNTAYLQMNSLRAEDTAVYYCARWLRVSLKSGVYKVLARAVELDEYVMDYWGQGTLVTVSS
# VL: B5 VL with W91S, H93Y, H94Y, G95A, Y96W, L97P
# B9: Fab R2C22 (Fab, V domains shown)
# VH: EVQLVESGGGLVQPGGSLRLSCAASGFNIYSSYMHWVRQAPGKGLEWVASIYSSYGSTYYADSVKGRFTISADTSKNTAYLQMNSLRAEDTAVYYCARHSRDGWQHWFGNWAGLHSYGMDYWGQGTLVTVSS
# VL: DIQMTQSPSSLSASVGDRVTITCRASQSVSSAVAWYQQKPGKAPKLLIYSASSLYSGVPSRFSGSRSGTDFTLTISSLQPEDFATYYCQQYYHYGYYLITFGQGTKVEIKR
# B10: Fab R3C8 (Fab, V domains shown)
# VH: EVQLVESGGGLVQPGGSLRLSCAASGFNFSSSSIHWVRQAPGKGLEWVASIYPSYSYTYYADSVKGRFTISADTSKNTAYLQMNSLRAEDTAVYYCARHCLLRSRRCEMSTKTRELNVYRYAMDYWGQGTLVTVSS
# VL: B9 VL with Y91W, Y92P, H93V, Y94G, G95S, Y96S, L98P
# B11: Fab R2C6 (Fab, V domains shown)
# VH: EVQLVESGGGLVQPGGSLRLSCAASGFNIYYSSMHWVRQAPGKGLEWVAYISPYYGYTSYADSVKGRFTISADTSKNTAYLQMNSLRAEDTAVYYCARKDLLKTNRLTTRYKKSVSVGYGMDYWGQGTLVTVSS
# VL: DIQMTQSPSSLSASVGDRVTITCRASQSVSSAVAWYQQKPGKAPKLLIYSASSLYSGVPSRFSGSRSGTDFTLTISSLQPEDFATYYCQQYVYPPFTFGQGTKVEIKR
# B12: Fab R2C12 (Fab, V domains shown)
# VH: EVQLVESGGGLVQPGGSLRLSCAASGFNISSSYMHWVRQAPGKGLEWVASIYSYSSYTYYADSVKGRFTISADTSKNTAYLQMNSLRAEDTAVYYCARSDSWVQGRDFCYYSAWVGYGMDYWGQGTLVTVSS
# VL: B11 VL with Y91G, V92Y, P94A, P95L
# B13: Fab R3C10 (Fab, V domains shown)
# VH: EVQLVESGGGLVQPGGSLRLSCAASGFNIYYSSMHWVRQAPGKGLEWVASISPYYGYTYYADSVKGRFTISADTSKNTAYLQMNSLRAEDTAVYYCARGSLRRDFNLVVRSSWDIRSNYVMDYWGQGTLVTVSS
# VL: B11 VL with Y91S, V92W, Y93P, P94Y, F96I
# B14: Fab 2H9 (Fab, V domains shown)
# VH: EVQLVESGGGLVQPGGSLRLSCAASGFNIYYSSMHWVRQAPGKGLEWVASIYPYSGYTYYADSVKGRFTISADTSKNTAYLQMNSLRAEDTAVYYCARGTSFQVRCVLYRLLSPGRYVMDYWGQGTLVTVSS
# VL: B1 VL with G26S, D28S, T53S, H55Y, P93Y, Y94S, S95Y, L96P
# notes: not shown: His tag at the C-terminus of the heavy chain
# B15: Fab 2E4 (Fab, V domains shown)
# VH: EVQLVESGGGLVQPGGSLRLSCAASGFNLSYSYIHWVRQAPGKGLEWVAYISSSSGYTYYADSVKGRFTISADTSKNTAYLQMNSLRAEDTAVYYCARSARLRLRGNHDRRRSKSVYYRPYVMDYWGQGTLVTVSS
# VL: B1 VL with G26S, D28S, T53S, H55Y, G92S, Y94S, S95F, L96P, F97I
# notes: as for B14
# Target: T1, catalytic domain of MMP-14 (cdMMP-14) (human, UniProt P50281 114-287, limits assumed, biotinylated (Sulfo-NHS-LC-Biotin) where immobilised via streptavidin)
# T1 construct: also called matrix metalloproteinase-14 catalytic domain; wild-type MMP-14
# Experiment: ELISA, Fab titrated on immobilised biotin-cdMMP-14, anti-Fab-HRP
row,EC50 [nM],Binder
1,657,B1
2,10000,B2
3,57.5,B3
4,1800,B4
5,1200,B5
6,9.7,B6
7,750,B7
8,2000,B8
9,540,B9
10,1300,B10
11,2400,B11
12,150,B12
13,970,B13

# Target: T1, catalytic domain of MMP-14 (cdMMP-14)
# Experiment: ELISA, Fab titrated on immobilised MMP-14 catalytic domain, anti-Fab-HRP
# Protocol: Bound Fabs were detected using the anti-Fab-HRP conjugate. The half-maximal effective concentration (EC₅₀) was calculated from a four-parametric logistic curve-fitting analysis.
row,EC50 [nM],Binder
1,120,B14
2,840,B15
3,9.7,B6

# Target: T1, catalytic domain of MMP-14 (cdMMP-14)
# Experiment: cell-based or functional assay
row,Inhibition potency (FRET IC50) [nM],Binder
1,80,B1
2,1500,B2
3,170,B3
4,5500,B4
5,1200,B5
6,600,B7
7,2000,B8
8,75,B9
9,5400,B10
10,2400,B11
11,150,B12
12,1000,B13
